B1: SLC35F2 (parent)
chain: SFMPLVIKVTSATSVNLGILTADL

Variants of: B1
Test: protein stability index of a GFP-peptide fusion (GPS, HEK-293T) (PSI 1-6); higher = more stable
Settings: c terminus: a fixed tail appended
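Also: lentivirally expressed fusions sorted by FACS into six bins by GFP to DsRed ratio, PSI derived from sequencing read proportions per bin multiplied by bin number.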

Variant | protein stability index
SHMPLVIKVTSATSVNLGILTADL [F2H] | 1.71
SAMPLVIKVTSATSVNLGILTADL [F2A] | 2.38
SCMPLVIKVTSATSVNLGILTADL [F2C] | 2.58
SVMPLVIKVTSATSVNLGILTADL [F2V] | 2.68
SGMPLVIKVTSATSVNLGILTADL [F2G] | 3.11
SRMPLVIKVTSATSVNLGILTADL [F2R] | 2.01
SLMPLVIKVTSATSVNLGILTADL [F2L] | 2.42
SFMPLVIKVTSATSVALGILTADL [N16A] | 2.18
SFMPLVIKVTSATSVTLGILTADL [N16T] | 3.43
SFMPLVIKVTSATSVMLGILTADL [N16M] | 3.88
SFMPLVIKVTSATSVDLGILTADL [N16D] | 2.94
SFMPLVIKVTSATSVCLGILTADL [N16C] | 3.4
SFMPLVIKVTSATSVQLGILTADL [N16Q] | 3.34
SFMPLVIKVTSATSVWLGILTADL [N16W] | 2.82
SFMPLVIKVTSATSVGLGILTADL [N16G] | 2.93
SFMPLVIKVTSATSVFLGILTADL [N16F] | 3.69
SFMPLVIKVTQATSVNLGILTADL [S11Q] | 2.23
SFMPLVIKVTKATSVNLGILTADL [S11K] | 2.9
SFMPLVIKVTIATSVNLGILTADL [S11I] | 4.08
SFMPLVIKVTMATSVNLGILTADL [S11M] | 3.94
SFMPLVIKVTDATSVNLGILTADL [S11D] | 2.91
SFMPLVIKVTVATSVNLGILTADL [S11V] | 2.64
SFMPLVIKVTAATSVNLGILTADL [S11A] | 4.19
SFMPLVIKVTEATSVNLGILTADL [S11E] | 2.8

Variant | protein stability index
SFMPLVIKVTLATSVNLGILTADL [S11L] | 1.96
SFMPLVGKVTSATSVNLGILTADL [I7G] | 2.17
SFMPLVTKVTSATSVNLGILTADL [I7T] | 2.19
SFMPLVSKVTSATSVNLGILTADL [I7S] | 1.89
SFMPLVDKVTSATSVNLGILTADL [I7D] | 1.98
SFMPLVKKVTSATSVNLGILTADL [I7K] | 1.76
SFMPLVNKVTSATSVNLGILTADL [I7N] | 2.21
SFMPLVMKVTSATSVNLGILTADL [I7M] | 2.87
SFLPLVIKVTSATSVNLGILTADL [M3L] | 2.73
SFQPLVIKVTSATSVNLGILTADL [M3Q] | 2.13
SFWPLVIKVTSATSVNLGILTADL [M3W] | 4.7
SFIPLVIKVTSATSVNLGILTADL [M3I] | 2.15
SFGPLVIKVTSATSVNLGILTADL [M3G] | 3.41
SFVPLVIKVTSATSVNLGILTADL [M3V] | 2.06
SFMPIVIKVTSATSVNLGILTADL [L5I] | 2.1
SFMPRVIKVTSATSVNLGILTADL [L5R] | 1.65
SFMPKVIKVTSATSVNLGILTADL [L5K] | 1.88
SFMPHVIKVTSATSVNLGILTADL [L5H] | 2.28
SFMPEVIKVTSATSVNLGILTADL [L5E] | 1.51
SFMPWVIKVTSATSVNLGILTADL [L5W] | 2.75
SFMPCVIKVTSATSVNLGILTADL [L5C] | 3.74
SFMPYVIKVTSATSVNLGILTADL [L5Y] | 3.46
SFMPAVIKVTSATSVNLGILTADL [L5A] | 3.18
SFMPLVIMVTSATSVNLGILTADL [K8M] | 2.42

Variant | protein stability index
SFMPLVIAVTSATSVNLGILTADL [K8A] | 2.83
SFMPLVIEVTSATSVNLGILTADL [K8E] | 3.06
SFMPLVIPVTSATSVNLGILTADL [K8P] | 2.19
SFMPLVIYVTSATSVNLGILTADL [K8Y] | 3.43
SFMPLVITVTSATSVNLGILTADL [K8T] | 3
SFMPLVICVTSATSVNLGILTADL [K8C] | 3.64
SFMPLVIKWTSATSVNLGILTADL [V9W] | 2.28
SFMPLVIKDTSATSVNLGILTADL [V9D] | 1.78
SFMPLVIKCTSATSVNLGILTADL [V9C] | 3.06
SFMPLVIKGTSATSVNLGILTADL [V9G] | 2.17
SFMPLVIKITSATSVNLGILTADL [V9I] | 3.17
SFMPLVIKQTSATSVNLGILTADL [V9Q] | 3.26
SFMPLVIKKTSATSVNLGILTADL [V9K] | 1.48
SFMPLVIKRTSATSVNLGILTADL [V9R] | 1.81
SFMPLVIKVTSATSVNLGITTADL [L20T] | 2.55
SFMPLVIKVTSATSVNLGIDTADL [L20D] | 1.59
SFMPLVIKVTSATSVNLGIYTADL [L20Y] | 3.69
SFMPLVIKVTSATSVNLGIATADL [L20A] | 3.33
SFMPLVIKVTSATSVNLGILTADP [L24P] | 3.07
SFMPLVIKVTSATSVNLGILTADM [L24M] | 3.01
SFMPLVIKVTSATSVNLGILTADG [L24G] | 3.04
SFMPLVIKVTSATSVNLGILTADF [L24F] | 3.22
SFMPLVIKVTSATSVNLGILTADV [L24V] | 2.43
SFMPLVIKVTSATSVNLGILTADW [L24W] | 1.78

Variant | protein stability index
SFMPLVIKVTSATSVNLGILTADS [L24S] | 2.87
SFMPLVIKVTSATSANLGILTADL [V15A] | 3.38
SFMPLVIKVTSATSLNLGILTADL [V15L] | 3.01
SFMPLVIKVTSATSKNLGILTADL [V15K] | 3.59
SFMPLVIKVTSATSFNLGILTADL [V15F] | 3.58
SFMPLVIKVTSATSHNLGILTADL [V15H] | 2.88
SFMPLVIKVTSATSNNLGILTADL [V15N] | 2.58
SFMPLVIKVTSATSTNLGILTADL [V15T] | 3.48
SFMPLVIKVTSATSSNLGILTADL [V15S] | 3.78
SFMPLVIKVTSATSRNLGILTADL [V15R] | 3.44
SFMPLWIKVTSATSVNLGILTADL [V6W] | 4.41
SFMPLRIKVTSATSVNLGILTADL [V6R] | 2.43
SFMPLCIKVTSATSVNLGILTADL [V6C] | 3.92
SFMPLQIKVTSATSVNLGILTADL [V6Q] | 1.86
SFMPLDIKVTSATSVNLGILTADL [V6D] | 2.09
SFMPLGIKVTSATSVNLGILTADL [V6G] | 3.03
SFMPLHIKVTSATSVNLGILTADL [V6H] | 2.74
SFMPLFIKVTSATSVNLGILTADL [V6F] | 2.02
SFMPLIIKVTSATSVNLGILTADL [V6I] | 2.65
SFMPLAIKVTSATSVNLGILTADL [V6A] | 2.02
SFMPLEIKVTSATSVNLGILTADL [V6E] | 1.24
SFMPLMIKVTSATSVNLGILTADL [V6M] | 1.36
